Assay results reported in the supplement of paper PMC10567573.
± gives the standard deviation.

Test: protein stability index of a GFP-peptide fusion (GPS, HEK-293T) (PSI 1-6); higher = more stable
Details: c terminus: a fixed tail appended
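Also: 24-mer peptide tiles fused after GFP, lentivirally expressed, FACS-sorted into six equal bins by GFP/DsRed ratio, decoded by Illumina sequencing, PSI is the read-weighted mean bin number.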

Sequence | protein stability index (treatment: DMSO) | protein stability index (treatment: MLN4924 1 uM, 8 h)
SVAEGYYSHRETVNGSWYIQDLCE [CASP6] | 3.23 ± 0.22 | 3.11 ± 0.35
RQRFRHLRYQETPGPREALSQLRV [ZNF232] | 3.13 ± 0.27 | 3.39 ± 0.28
LAIDFIDEGRLLLEFDLLIFSFGQ [SOAT2] | 3.35 ± 0.39 | 2.78 ± 0.57
SLQPQQQQQRQRPPRPPPRGTPPR [N4BP2L1] | 3.81 ± 0.17 | 4.16 ± 0.2
ERAIRTQPKQLIVDDLKGSLKEDL [SPRY1] | 4.81 ± 0.28 | 4.85 ± 0.18
GTLTPRMTTDFDLSLDNSPLLQSI [TRIM9] | 3.43 ± 0.28 | 3.48 ± 0.36
LGSVQFMEQFCWPHLRSFCETCVG | 2.39 ± 0.29 | 2.21 ± 0.41
AESSVPPVTSIGIDNLGLKLEENL [SLC35F2] | 4.97 ± 0.2 | 5.13 ± 0.13
VLSESSGPSNTSHSSSRDSHLSNG [C2CD2L] | 4.96 ± 0.28 | 5 ± 0.13
GSKNVFSTFRTPAVLFTGIVALYI [ATL3] | 3.11 ± 0.7 | 2.67 ± 0.57
PGQEKGSALEGRADTTTGSAAGPP [EHMT1] | 5.39 ± 0.22 | 5.48 ± 0.17
PYKCPECGKSFSRSSHLVIHERTH [ZNF263] | 3.23 ± 0.54 | 3.28 ± 0.64
GPLPPAPAMVRISKPKTFQAYLDD [YPEL3] | 3.73 ± 0.18 | 4.33 ± 0.37
DKDENKLSEASGGRAENGERSDLE [ZC3H15] | 5.45 ± 0.24 | 5.45 ± 0.28
IGLTKAGMEGDWSWVDDTPFNKVQ [CD207] | 2.97 ± 0.37 | 3.04 ± 0.46
LSPEVLRKDPYGKPVDMWACGVIL [CAMK2D] | 2.74 ± 0.55 | 2.14 ± 0.71
PAFRFLTKMWHPNIYETGDVCISI [CDC34] | 3.2 ± 0.42 | 3.04 ± 0.59
AFAERYAPDKTSTVLTRHSQPATP [PDLIM7] | 4 ± 0.3 | 3.82 ± 0.18
IEREVNILREIRHPNIITLHDIFE [DAPK3] | 2.69 ± 0.17 | 2.71 ± 0.42
TYRIRIEMSKDALPEKACQLDSRY [FBXO3] | 2.37 ± 0.12 | 2.57 ± 0.35
FCYCAGSHKRKRSSGSFCYCHPDS [GMCL1] | 2.56 ± 0.73 | 3.19 ± 0.61
SDNSWVLAGSESLPVETLGPASRM [PBXIP1] | 3.83 ± 0.15 | 4.02 ± 0.5
KVYDDMAFRYLSWILFPLLGCYAV [CLPTM1] | 3.15 ± 0.23 | 3.07 ± 0.55

Sequence | protein stability index (treatment: DMSO) | protein stability index (treatment: MLN4924 1 uM, 8 h)
AFSPIVILTERVSLPFKPFAIILP [MIA2] |  | 2.87 ± 0.24
RYGCGHRGCGDGCCCPSCYRRYRF [KRTAP19-2] | 3.29 ± 0.27 | 3.62 ± 0.54
GGGMRVCGFGGGAGSVFGGGFGGG [KRT15] | 2.03 ± 0.33 | 1.94 ± 0.24
RLEPLEHRRRTICGTPNYLSPEVL [PLK2] | 3.55 ± 0.19 | 3.67 ± 0.1
LTLSAGDLGGSIYANLALSGLIEI [SLC22A15] | 2.77 ± 0.91 | 3.43 ± 0.74
GNFQGIRFHYDRNPGTDAVAQTSL [FATE1] | 3.38 ± 0.22 | 3.42 ± 0.16
IFEGNSEKEIPVLNELPVPMVARY [CPXM2] | 3.55 ± 0.16 | 3.37 ± 0.33
LPAGPGEEWERRPQEPRPPKRATK [CPXM2] | 5.04 ± 0.53 | 5.44 ± 0.28
ASTVLKSVGFQSNEAASLASTGVG [SLC2A12] | 4.16 ± 0.3 | 4.15 ± 0.35
MKGRGQLEKPPAPNQAMVVAAAGD [TBC1D10A] | 5 ± 0.26 | 4.94 ± 0.49
VPVKKQKTRTVFSSTQLCVLNDRF [NANOGP8] | 2.57 ± 0.23 | 2.77 ± 0.32
IQHRRTHTDSKYEHAIAEAQKNMY [ZNF396] | 3.78 ± 0.27 | 3.96 ± 0.21
RQLVEADINGLRRILDELTLCKAD [KRT36] | 3.2 ± 0.24 | 3.32 ± 0.26
ESHSCPQQVPMPPGQEAQRVVCGI [NEK8] | 4.15 ± 0.28 | 4.15 ± 0.12
KAKRRNQEMQQKLVELSAENEKLH [CEBPD] | 4.97 ± 0.67 | 4.8 ± 0.097
SEEEKELYLNLALHLASDFFLKHP [PDS5B] | 2.19 ± 0.36 | 2.18 ± 0.36
TCGVCALELGSTEVLLDHLKAHAE [PLAGL1] | 2.78 ± 0.46 | 2.78 ± 0.42
VPEEPPVKKLMRTSTPPPASVINN [ZBED1] | 4.89 ± 0.29 | 4.94 ± 0.19
GGGDEDGSLGSRAEPAPRAREGGG [SMAD6] | 5.55 ± 0.17 | 5.51 ± 0.4
MATPDAGLPGAEGVEPAPWAQLEA [FANCE] | 4.86 ± 0.32 | 4.96 ± 0.27
MVGEEKMSLRNRLSKSRENPEEDE [SOAT1] | 5.52 ± 0.16 | 5.44 ± 0.21
SFGWSDRAKVKTDDIARIYQPKRY [FAM98B] | 2.9 ± 0.38 | 2.99 ± 0.54
MGEDEDGLSEKNCQNKCRIALVEN [PLD5] | 5.14 ± 0.51 | 4.82 ± 0.11

Sequence | protein stability index (treatment: DMSO) | protein stability index (treatment: MLN4924 1 uM, 8 h)
GALQIEQSEESDQGKYECVATNSA [PTPRD] | 5.18 ± 0.097 | 5.39 ± 0.31
QTPQVNINPFTPDSLLLHSSGQCR [WEE1] | 3.6 ± 0.24 | 3.86 ± 0.34
IALDLTPVIEELTNAGFLQTESEL [FAN1] | 2.46 ± 0.26 | 2.57 ± 0.37
KRYGLGAHRGRLNIQAGINENDFY [CPXM2] | 2.45 ± 0.44 | 2.61 ± 0.28
SDVNDNAPRFNQQLYTAYILENRP [PCDHGC5] | 2.87 ± 0.26 | 3.1 ± 0.31
SIDFNKDGHIDINEFLEAFRLVEK [PPEF2] | 2.88 ± 0.17 | 3.32 ± 0.4
IPYWVAYYLALLLSLLVMVISPVI [NSDHL] | 2.23 ± 0.31 | 2.28 ± 0.38
HILAKNYFSQVPVLASFILDDGEI [IQUB] | 2.2 ± 0.51 | 1.96 ± 0.42
PRQVSYTPQHHEKQYAMQRPNDDS [IQUB] | 4.78 ± 0.22 | 4.77 ± 0.12
MGESSEDIDQMFSTLLGEMDLLTQ [APBB1IP] | 4.25 ± 0.11 | 4.08 ± 0.32
LPATLVMTVPATAIYFTAYDQLKA [SLC25A39] | 3.02 ± 0.33 | 3 ± 0.51
ACCEFLESQLDPSNCLGIRDFAET [KLHL12] | 2.79 ± 0.37 | 3 ± 0.5
PLSLVKRTDLKDLIIFDKQSSQRM [CEP70] | 2.97 ± 0.51 | 3.18 ± 0.44
LSCTLVPRSGEQAEGSPGGPGDSQ [CDKN1A] | 5.03 ± 0.41 | 5.05 ± 0.13
EGAFGEHGSQGTYSNTKENGINGE [MAP2] | 5.19 ± 0.31 | 5.25 ± 0.17
IQMVNESLGYVRSQFLKLKTSVEK [CD207] | 3.34 ± 0.21 | 3.29 ± 0.13
VYAGRPLSVIQMVAFLEQRASALL [FBXO34] | 1.98 ± 0.39 | 2.29 ± 0.35
RDKARLLREKVEFLRSLRQMKQKV [NFE2L1] | 2.73 ± 0.15 | 3.14 ± 0.37
DVNKTDHSQRTALHLAAQKALRTI [INVS] | 3.06 ± 0.42 | 3.44 ± 0.43
SGGITHDTFQKELMCFDPDTDKWI [KLHL13] | 3.94 ± 0.16 | 4.17 ± 0.25
VAGNPQDTRLRYSFFVPRPTPSTP [ADAMTS4] | 3.11 ± 0.36 | 3.18 ± 0.25
EHPEALSCLLLQLRREKPSEEMVK [INTS3] | 3.38 ± 0.43 | 3.57 ± 0.26
GIGHKVDAVFMKDGFFYFFHGTRQ [MMP1] | 2.4 ± 0.94 | 2.13 ± 0.23

Sequence | protein stability index (treatment: DMSO) | protein stability index (treatment: MLN4924 1 uM, 8 h)
PNIPKAKSLDGVTNDRTASQGQWG [DHCR7] | 4.65 ± 0.29 | 4.84 ± 0.29
RGVRRTASTPTPDDKLFQKLAKVY [CPN1] | 2.61 ± 0.29 | 2.86 ± 0.27
KQTREQLHSISDSVLFLQEFGALM [TRIM29] | 2.44 ± 0.52 | 2.36 ± 0.34
APAQRATRGFLRSPSSDLDTDAEG [RETREG3] | 5.44 ± 0.13 | 5.14 ± 0.18
TVARPVFTEYQASAFGNVKLVVHD [RHOBTB3] | 3.06 ± 0.33 | 3.17 ± 0.23
SAVLFYVNMYVSIVFFGLISFDRY [P2RY14] | 3.04 ± 0.35 | 3.22 ± 0.36
PEPEDEPGGPGAMTESLEASEFLE [RSPH3] | 5.7 ± 0.12 | 5.48 ± 0.2
RLQQLRRLRGLLRVLRGRPGAGSR [FBXO33] | 2.36 ± 0.21 | 2.66 ± 0.62
DISETFNHANGLTLVSRAHQLVME [PPP2CA] | 2.79 ± 0.12 | 2.82 ± 0.29
KSKGYGFVSFFNKWDAENAIQQMG [TIA1] | 2.11 ± 0.76 | 1.59 ± 0.3
SPEWDTVTPEAKDLINKMLTINPA [CAMK2D] | 4.24 ± 0.42 | 4.54 ± 0.12
AFHGLSLGLSLTNGLALGPDLNIL [PSD2] | 2.57 ± 0.56 | 2.54 ± 0.5
EARPIETYQVHDYLRSKLCSLYEN [PPP2R2C] | 2.7 ± 0.19 | 3.02 ± 0.33
AHGADPTHRLKDGSTMLIEAAKGG [ANKRD17] | 4.7 ± 0.31 | 4.91 ± 0.16
LEQIMESVKSKIGELEDESLNRAC [CEP70] | 4.47 ± 0.35 | 4.46 ± 0.36
MLHHHCRRNPELQEELQIQAAVAA [ASB7] | 3.47 ± 0.29 | 3.59 ± 0.26
YLHTVSDCDTSSICEDSFDGRSLS [SCARA5] | 4.37 ± 0.13 | 4.51 ± 0.14
TKELDQWIEQLNECKQLSESQVKS [PPP2CA] | 4.71 ± 0.094 | 4.69 ± 0.12
MIRKGGDQTSLLVVDKETDNMYRL [PDZK1] |  | 3.17 ± 0.25
GLDGYRGYSLADWVCLAYFTSGFN [SPACA3] | 3.1 ± 1.2 | 2.81 ± 0.7
LHAPPAFYSTSSGLANGLQLLCPW [VENTX] | 2.32 ± 0.1 | 2.27 ± 0.26
